System: Saccharomyces cerevisiae
Test: transcriptional activation domain activity (GFP:mCherry ratio, weighted mean of sorted bins, harmonized to initial dataset scale) (arbitrary fluorescence ratio units); higher = stronger transcriptional activation
Details: beta-estradiol 1 µM; induction time 4 h
In short: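 Values are activation activity, found as the read-weighted mean of bin median fluorescence, averaged across barcodes and then mapped linearly onto the initial dataset scale. Barcoded protein tiles fused to an estradiol-inducible synthetic transcription factor were integrated at the URA3 locus of GFP-reporter yeast diploids. Cells were induced for 4 hours at 30 °C with 1 uM beta-estradiol in SC, sorted into 8 bins by GFP:mCherry ratio, and barcode-sequenced, with tiles under 50 reads discarded.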

Sequence | transcriptional activation domain activity
LTQRNTCITGGPFWFFFFFFCLLVFSLPPSLKLFPTLPRITCLFSHVFFFFFP | 15700
MPFGRRSAFGVFFIYHFFFVLHLIFTGFQSIFVYIGLSKLFFFWFGPFFFLFP | 61800
KHRSSINTVLVVGGDDKVVKQAGDALKGKLGVKGGGKGPRWSGKFIGVWKAAR | 50100
KEKSASERKEEKRQKKMRGEDVSDSEEEKRKRKDKQRGQRVHAVGSGTTSGAS | 35900
WWLVKVTVSVLWVLDTFDMCLIFHILYWYLIINYGNPLSLANPIWSIILHVLV | 64800
TRPYEMALKFVNVTDTNELLRMRQFACDICDYAPHLLDNDNISLLIVLLILTR | 45000
LTPSSEQVIPACSTRTSTARASAGPSTKGAASRPSSSVSTRSRAPTPSSKKSC | 29300
SGPSSNDELIEKGRMLVDELSEAGGGIKDGARNNTSSLYLHLVRVSIDKFSHA | 18900
QLMTGPVLLDREVQTGHSGSLLVLVMSCWSLECFERRQALRKTVLALLGPLRE | 70700
MIIASLVPGGGIGFFYFVFWSLLWLRLFLAFLSIMGSFLCLFTCYMPSFLFFS | 33400
YFVVRGFLFSSAVGCLGLRLGLGLFKRVIYWDQKLLLFLFLFPFFFPPLFSTR | 60900
ETVEEPAPKRGKATRTKAAEPAPVEEAPKPAAKPRGRAAAKKATEPAAEAEVE | 35500
MFFCSFFRWGFIFFFSFLFFSFILLCWCFLVFLNFATDPACNLPFSFLVFIPR | 57600
IVCGCMGAAGFRYFLNLPFLWFFLLHWCWWFTNDYLLYHVLVQEHTLPFNKFV | 32500
TECASIPFAKMRALLNGIPVTNLNDRDRMMLFIFKLVLLEVRSKNTLEILSNH | 33400
DLLEDDGQPSSATQKSMKRANRKRQSQKNRIVHLLNRTRRALGVSRAALILLL | 57500
MLETRFINNLVPLYRFLLPFYIFFFFSIYCYYLTIDPHYFSLSSMVFFFSCCT | 57600

Sequence | transcriptional activation domain activity
KQPEPRTRSASPKRAASPAKPVAAEKPAAVAAAAEKPAEKVAEKAAEKPAPAV | 31400
CILVYLCHVSYLILLPRFDYVYNIIFNMVIGLTHNALWLLYSLPTSISLFRRF | 53500
IHEPDQPLFSSFFSFFFVSFLSLIPPPLFPSSFPFLLFLPFLPPSLSLLSLIF | 35500
AESQLTLRAIVSSKEAGVIIGKGGKNVADLRDETGCKAGVSKVVQGVHDRVLT | 22300
PDIKKRPRKKSRRASAEGSEIGTESGGSDDGRQESAQRRKVERKERAGSSKEV | 47100
KATEYCLYFFGLGPALFKSLLPDKYWQHYCMLVHAVRILVQRRITQTQMLEAY | 49300
EAEDAPAAAVSIEEDAPVKEVEAPAPEPEVLEPEKPKEPSPTPVAAATKPAAP | 49100
EEQEQDAASKAQEGSKDAPAPKSTENKNEKDAAPNDSSPSKFTKKHKAKKPSK | 24700
GEKEASGENTSNGTTATTVKPSSSSDEEKAAKKENKEAATTTNNGIKNSATAS | 30300
MGFASFRKESFCRIGTKELMCARMCLLCPLARSLIFMVLRVVLLLSTLLLVFL | 61900
MFCLRSWLPLLFIPTNASPVFIFLFFVCTYFLNRPCVYCSFLLLILFMTSCNW | 62500
YNGLPRFKWFISTVWVIYAGSCLLPFAGMVGTQILPLNRCIGVFKKPYPAILF | 63300
EKDKGEPADGAAAPVVKRKRGRPPNKDRNKPPPAPAPAPPPAGASASTPASRL | 33400
MYMSTIRSGHLQPVPSSSKLILFIFLFLFSLISLFFLVGSFPPFFLSYLWILC | 31200
KEGMGWVDVLFSVCTSIILVQLVFVLGWWLLFLFLSMYHMLTFCIIIFILYKY | 53300
DKEAKADVEEKPKTPRGRKRKTAEEVNGEEAQTEKEPPVKKTKPASKAKPASK | 42600
SWFIYSYDKEWIFLWHIPFPYPPIRTPSIPWVLYGLSVRFWSFISLLICNFFC | 63300
